Results on 5 compounds are retold here after patent US20110046887A1, “METHOD FOR ASSESSING PATHWAY PRODUCT LEVELS” (priority 2006, published 2011).

Series [1] relates to total Te. As to conditions: overnight after oral KTCZ 1000 mg with DEX 0.75 mg at midnight; reduced from 530±61; cited from earlier work.
For series [2] the following is noted: oral dosing in healthy men; cited from earlier work.
In series [3] the test system is Pulsatile LH secretion. Briefly: Expected pulsatile LH secretion in KTCZ/DEX paradigm with Te addback. The series is classed as in vivo, human. The method, then: Volunteers (Forty (40) healthy men ages 18-80 years) arrived at a testing facility by 1730 hours and stayed two nights. At 1800-2000 hours, two i.v. catheters were placed in (contralateral) antecubital veins to allow concomitant saline or Te infusion and blood sampling. […] This regimen can reduce the concentration of total Te from 530±61 to 85±13 ng/dL overnight. […] Visits were greater than or equal to two weeks apart. The order of the four visits was prospectively randomized, and interventions were double-blind.
To enforce pulsatile negative feedback, 12 consecutive pulses of Te or saline was given i.v. on top of the basal infusion. […] To monitor LH and Te concentrations, blood samples (1.25 mL) were withdrawn every 10 min for 16 hours beginning at 0800 hours, FIG. 7.
Te was infused at a constant rate of 1.0 mg/24 hours from midnight (MN) until MN. There were 12 superimposed pulses each at a session-defined dose of zero (saline), 167, 333 or 500 μg delivered over 6 min every two hours from MN to 2200 hours. Resultant total (basal+pulsatile) Te infusion rates were equivalent to 1, 3, 5 and 7 mg/24 hours, thus spanning sub-, mid- and high-physiological Te production rates in healthy young men (normal interquartile range 4-6 mg/day) (Veldhuis et al., Physiological Basis of Aging and Geriatrics, 3rd edition, 213-231, Boca Raton, CRC Press (2003); Veldhuis, Reproductive Endocrinology, 4th edition, 622-631, Philadelphia, W.B. Saunders Co., (1999)). Crystalline testosterone was dissolved in 100% ethanol, diluted to less than 0.3% ethanol in normal saline, and microfiltered for i.v. infusion after sterility and pyrogen testing.
Estimates based on data described elsewhere (Zwart et al., J. Clin. Endocrinol. Metab. 82:2062-2069 (1997)) indicate that statistical power can exceed 90% to detect an effect of age that explains 33% or more of the variability in Te feedback sensitivity if 40 subjects are studied. The predicted slope±SD of feedback sensitivity regressed on age is (×10^−3) 1.5±0.25. […] Because an a priori postulate is that age reduces feedback sensitivity, a test of significance can be one-tailed; and because both sensitivity and efficacy can be examined, the experiment-wise critical value is P≦0.025.

The nature of series [4]: Bayesian deconvolution of 24-hr pituitary-hormone concentration profiles (secretion and elimination parameters). It is filed as in vivo, human. As to conditions: 24-hr 10-min sampled profile, ACTH, LH young, GH person. As to the method: The experimentalist requires an automated procedure by which to simultaneously detect pulse times and estimate secretion/kinetic features. […] In each case, discrete blood sampling (i.e., the withdrawal lasting 5-10 sec) was performed every 10 min for 24 hr. [Integrative sampling (continuous withdrawal) yields a time-integrated or flattened version of the impulse, thereby underestimating absolute peak values and overestimating interpulse valleys.] If the set (Y1, Y2, . . . , Yn) denotes observed hormone concentrations, n would be 145 for 10-min sampling over 24 hr. […] One would like to find values (a,b) so that, for a specified probability, e.g., 0.95, one can make the following probability statement:
Assuming that pulse-onset times are given by ℑm={T^1, T^2 . . . , T^m}, Keenan and Veldhuis give a model to estimate secretory dynamics conditional on pulse times (Keenan & Veldhuis, 1998; Keenan et al., 2000; Keenan et al., 1998). The primary components are basal and pulsatile secretion, a flexible secretory-burst shape, random effects on burst mass, biexponential elimination kinetics and combined experimental uncertainty in sample collection, processing and assay. We suppose that M, the amount of hormone secreted in the j^th burst (mass per unit distribution volume), is the sum of a finite amount of minimally available stores, a linear function of hormone accumulation over the preceding interpulse interval, and a random effect allowing for biological variability in individual burst mass:
In the present Bayesian approach, an a priori (prior) probability distribution is placed on the parameter space: Θ×ℑ, where ℑ={ℑN, ℑN-1, . . . , ℑp} in Eq. [16] and Θ denotes the parameter set in Eq. [14]. The prior density on Θ×ℑ is assumed to be a product: π×λ, with a uniform prior on Θ, π(θ)∝ to a Constant. The prior on ℑ is the Akaike Information Criterion (AIC) penalty for the number of pulse times m, λ(ℑm)∝exp(−m). […] Measured data Y=(Y1, Y2, . . . , Yn)′ are then incorporated via a likelihood function (Eq. [15]), resulting in the a posteriori (posterior) probability distribution on Θ×ℑ:
The algorithm of the present paper utilizes a mathematically justified procedure for simulating from the joint (Θ×ℑ) posterior distribution (Eq. [18]). The basic idea is that, for a given hormone concentration profile, one generates an array of (e.g. 100) simulations from the posterior distribution, which allows one then to make probabilistic statements about the parameters of pulse times, secretion and elimination.
total basal secretion as: n×β0, and total pulsatile as the difference. Repeated sampling of (θ,ℑm), and calculation of total pulsatile secretion (for each), produces a probability histogram approximating the posterior distribution for total pulsatile secretion, given an observed concentration profile. […] Specifically, in reference to Eq. [9]
Histograms are based on 100 simulations from the joint posterior distribution.

The conditions of series [5]: injected GnRH, i.v. bolus; cited from earlier work.
The mark [6] stands for this setting: 0.05 quantile of posterior distribution.
[7] abbreviates: 0.25 quantile of posterior distribution.
The mark [8] stands for this setting: 0.50 quantile of posterior distribution.
Where [9] appears, read: 0.75 quantile of posterior distribution.

Take `CC(=O)N1CCN(c2ccc(OCC3COC(Cn4ccnc4)(c4ccc(Cl)cc4Cl)O3)cc2)CC1` (centres unmarked) [KTCZ, ketoconazole]: the “concentration of total Te” value in series [1] was 85 ± 13 ng/dL. The half-life entry in series [2] was “six”.

With `C[C@]12CC[C@H]3[C@@H](CCC4=CC(=O)CC[C@@]43C)[C@@H]1CC[C@@H]2O` [Te, testosterone], the “Pulsatile LH secretion” value in series [3] (oldest subjects, 1 mg Te addback, free Te decrement 15 ng/dL) came to 2.0 IU/L/min; in series [3] (oldest subjects, 7 mg Te addback (start of expected increase)) it was 0.65 IU/L/min; in series [3] (youngest subjects, 1 mg Te addback, free Te decrement 17 ng/dL), 3.5 IU/L/min; in series [3] (youngest subjects, 7 mg Te addback (start of expected increase)), 0.50 IU/L/min.

Turning to “adrenocorticotropin hormone (SYSMEHFRWGKPVGKKRRPVKVYPNGAEDESAEAFPLEF; Corticotropin; UniProt P01189 138-176, looked up) [ACTH, endogenous pituitary hormone measured in blood of a person]”, the “Slow Half-Life” value in series [4] (setting [6]) turned out to be 9 min; in series [4] (setting [7]), 11 min; in series [4] (setting [8]) it was 15 min; in series [4] (setting [9]), 19 min; in series [4] (0.95 quantile of posterior distribution) it was 25 min.

Turning to gonadotropin-releasing hormone [GnRH], in series [5], the first-phase half-life was 3 to 7 min and the second-phase half-life is 35 to 50 min.

As for growth hormone [GH], the “Slow Half-Life” value in series [4] (setting [6]) is given as 28 min; in series [4] (setting [7]), 31 min; in series [4] (setting [8]) it was 31 min; in series [4] (setting [9]), 31 min.
